The text below walks through data of article PMC8142927, “Destabilization of EpCAM dimer is associated with increased susceptibility towards cleavage by TACE” (PeerJ, 2021).

This series deals with the molecule itself. Put plainly: SEC-MALS; SEC with right- and low-angle laser light scattering detectors (SEC-RALLS/LALLS, OMNISEC), Superdex 200 Increase 10/300 GL, 150 μg of protein injected per run, 25 °C, 0.5 ml/min, 20 mM HEPES, pH 7.5, 100 mM NaCl; dimer to monomers.

Numbering of substitutions follows the chain as printed. Numbers in names are those of the source.

B1: EpEX (EpCAM extracellular part, residues 24-265, with mutated N-glycosylation sites N74Q, N111Q and N198Q) (domain or fragment, human)
chain: QEECVCENYKLAVNCFVNNNRQCQCTSVGAQNTVICSKLAAKCLVMKAEMQGSKLGRRAKPEGALQNNDGLYDPDCDESGLFKAKQCQGTSMCWCVNTAGVRRTDKDTEITCSERVRTYWIIIELKHKAREKPYDSKSLRTALQKEITTRYQLDPKFITSILYENNVITIDLVQQSSQKTQNDVDIADVAYYFEKDVKGESLFHSKKMDLTVNGEQLDLDPGQTLIYYVDEKAPEFSMQGLKLE
notes: Epithelial cell adhesion molecule (EpCAM, CD326), human, extracellular part EpEX, residues 24-265, N-glycosylation sites mutated; residues translated from the XhoI scar, between K265 and the His6-tag; in solution it is a dimer in equilibrium with a small amount of monomer; also called wild type-like EpEX; non-glycosylated EpEX variant; source: Sf9 insect cells (baculovirus), culture supernatant, …
Broadly, the stoichiometry N is a count of units in the complex or per binding partner. Take B1: the “stoichiometry N” value amounted to 2.

B2: EpEX L264C (domain or fragment, human)
chain: B1 chain with L241C
modifications: disulfide bond between the introduced cysteine residues (C264) of the two subunits
notes: residues translated from the XhoI scar, between K265 and the His6-tag; Derived from m1; the protein is a constitutive dimer of two subunits linked by a disulfide; PDB 4mzv is the parent EpEX; also called disulfide-stabilized dimeric form; covalently stabilized EpEX dimer; source: Sf9 insect cells (baculovirus), culture supernatant, purified (His-tag column, ion exchange, SEC); not shown: His6, …
Take B2: the “stoichiometry N” value stood at 2.
